# Read-outs that look alike come from different tables or passages of the source.
# Assays:
# [1] = molecular target: CAT-2200 heavy chain Fab construct (H1), wild type; test: LCCA, SPR tag read-out
# [2] = molecular target: Pertuzumab heavy chain Fab construct (H2) L45A (VH L45A); test: LCCA, SPR tag read-out
# [3] = molecular target: Pertuzumab heavy chain Fab construct (H2) L45P (VH L45P); test: LCCA, SPR tag read-out
# [4] = molecular target: CAT-2200 heavy chain Fab construct (H1) L45F (VH L45F); test: LCCA, SPR tag read-out
# [5] = molecular target: Pertuzumab heavy chain Fab construct (H2) Q39D (VH Q39D); test: LCCA, SPR tag read-out
# [6] = molecular target: Pertuzumab heavy chain Fab construct (H2) Q39E (VH Q39E); test: LCCA, SPR tag read-out
# [7] = molecular target: CAT-2200 heavy chain Fab construct (H1) Q39K (VH Q39K); test: LCCA, SPR tag read-out
# [8] = molecular target: Pertuzumab heavy chain Fab construct (H2) Q39D (VH Q39D); test: LCCA, SPR tag read-out; remark: listed apart in the source
# [9] = molecular target: Pertuzumab heavy chain Fab construct (H2) Q39E (VH Q39E); test: LCCA, SPR tag read-out; remark: listed apart in the source
# [10] = molecular target: CAT-2200 heavy chain Fab construct (H1) Q39K (VH Q39K); test: LCCA, SPR tag read-out; remark: listed apart in the source
# [11] = molecular target: Pertuzumab heavy chain Fab construct (H2) Q39D (VH Q39D); test: LCCA, SPR tag read-out; remark: listed apart in the source
# [12] = molecular target: Pertuzumab heavy chain Fab construct (H2) Q39E (VH Q39E); test: LCCA, SPR tag read-out; remark: listed apart in the source
# [13] = molecular target: CAT-2200 heavy chain Fab construct (H1) Q39D (VH Q39D); test: LCCA, SPR tag read-out
# [14] = molecular target: CAT-2200 heavy chain Fab construct (H1) Q39E (VH Q39E); test: LCCA, SPR tag read-out
# [15] = molecular target: Pertuzumab heavy chain Fab construct (H2) Q39R (VH Q39R); test: LCCA, SPR tag read-out
# [16] = molecular target: CAT-2200 heavy chain Fab construct (H1) Q39E (VH Q39E); test: LCCA, SPR tag read-out; remark: listed apart in the source
# [17] = molecular target: Pertuzumab heavy chain Fab construct (H2) Q39K (VH Q39K); test: LCCA, SPR tag read-out
# [18] = molecular target: CAT-2200 heavy chain Fab construct (H1) Q39R (VH Q39R); test: LCCA, SPR tag read-out
# [19] = molecular target: CAT-2200 heavy chain Fab construct (H1) Q39R (VH Q39R); test: LCCA, SPR tag read-out; remark: listed apart in the source
# Recombinant human IL-17A = Recombinant human IL-17A (human, UniProt Q16552 20-155, limits assumed); test: SPR
# [20] = molecular target: His-tagged Influenza B Hemagglutinin (B/Brisbane/60/2008) (Influenza B (B/Brisbane/60/2008))
# [21] = molecular target: T1, His-tagged recombinant human CD-19 (human, UniProt P15391 20-291, limits assumed); test: SPR
# T1 sequence (looked up): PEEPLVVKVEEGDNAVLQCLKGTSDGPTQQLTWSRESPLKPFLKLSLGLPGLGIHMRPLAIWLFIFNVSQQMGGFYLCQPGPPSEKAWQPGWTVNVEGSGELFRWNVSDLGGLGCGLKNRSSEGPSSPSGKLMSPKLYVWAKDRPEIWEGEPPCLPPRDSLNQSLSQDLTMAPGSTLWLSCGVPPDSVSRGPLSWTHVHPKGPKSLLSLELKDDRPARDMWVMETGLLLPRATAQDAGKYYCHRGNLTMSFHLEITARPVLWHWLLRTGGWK
# [22] = molecular target: T1, His-tagged recombinant human CD-19; test: SPR; remark: listed apart in the source
# Recombinant human IL-17A, sequence (Q16552 20-155 limits assumed): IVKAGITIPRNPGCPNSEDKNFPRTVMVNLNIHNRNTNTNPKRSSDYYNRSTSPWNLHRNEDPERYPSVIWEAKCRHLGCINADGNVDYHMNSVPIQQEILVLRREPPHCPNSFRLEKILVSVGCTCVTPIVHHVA
binder,measurement,setting,value
"Pertuzumab kappa light chain construct (L2) P44F, HA-tagged (other, not shown: small tags and cut ends) light: DIQMTQSPSSLSASVGDRVTITCKASQDVSIGVAWYQQKPGKAFKLLIYSASYRYTGVPSRFSGSGSGTDFTLTISSLQPEDFATYYCQQYYIYPYTFGQGTKVEIKRTVAAPSVFIFPPSDEQLKSGTASVVCLLNNFYPREAKVQWKVDNALQSGNSQESVTEQDSKDSTYSLSSTLTLSKADYEKHKVYACEVTHQGLSSPVTKSFNRGEC",H1L1:H1L2 normalized median ratio (H1L2 part),[1],38%
same,H2L2:H2L1 normalized median ratio (H2L2 part),[2],59%
same,H2L2:H2L1 normalized median scalar value ln(r1/f1),[2],0.37
same,H2L2:H2L1 normalized median ratio (H2L2 part),[3],67%
same,H2L2:H2L1 normalized median scalar value ln(r1/f1),[3],0.72
same,H1L1:H1L2 normalized median ratio (H1L2 part),[4],35%
"Pertuzumab kappa light chain construct (L2) Q38K, HA-tagged (other, not shown: small tags and cut ends) light: DIQMTQSPSSLSASVGDRVTITCKASQDVSIGVAWYQKKPGKAPKLLIYSASYRYTGVPSRFSGSGSGTDFTLTISSLQPEDFATYYCQQYYIYPYTFGQGTKVEIKRTVAAPSVFIFPPSDEQLKSGTASVVCLLNNFYPREAKVQWKVDNALQSGNSQESVTEQDSKDSTYSLSSTLTLSKADYEKHKVYACEVTHQGLSSPVTKSFNRGEC",H1L1:H1L2 normalized median ratio (H1L2 part),[1],33%
same,H2L2:H2L1 normalized median ratio (H2L2 part),[5],47%
same,H2L2:H2L1 normalized median scalar value ln(r1/f1),[5],-0.11
same,H2L2:H2L1 normalized median ratio (H2L2 part),[6],47%
same,H2L2:H2L1 normalized median scalar value ln(r1/f1),[6],-0.11
same,H1L1:H1L2 normalized median ratio (H1L2 part),[7],29%
same,H2L2:H2L1 normalized median ratio (H2L2 part),[8],75%
same,H2L2:H2L1 normalized median scalar value ln(r1/f1),[8],1.09
same,H2L2:H2L1 normalized median ratio (H2L2 part),[9],75%
same,H2L2:H2L1 normalized median scalar value ln(r1/f1),[9],1.09
same,H1L1:H1L2 normalized median ratio (H1L2 part),[10],35%
same,H2L2:H2L1 normalized median ratio (H2L2 part),[11],79%
same,H2L2:H2L1 normalized median scalar value ln(r1/f1),[11],1.35
same,H2L2:H2L1 normalized median ratio (H2L2 part),[12],78%
same,H2L2:H2L1 normalized median scalar value ln(r1/f1),[12],1.29
"Pertuzumab kappa light chain construct (L2) Q38E, HA-tagged (other, not shown: small tags and cut ends) light: DIQMTQSPSSLSASVGDRVTITCKASQDVSIGVAWYQEKPGKAPKLLIYSASYRYTGVPSRFSGSGSGTDFTLTISSLQPEDFATYYCQQYYIYPYTFGQGTKVEIKRTVAAPSVFIFPPSDEQLKSGTASVVCLLNNFYPREAKVQWKVDNALQSGNSQESVTEQDSKDSTYSLSSTLTLSKADYEKHKVYACEVTHQGLSSPVTKSFNRGEC",H1L1:H1L2 normalized median ratio (H1L2 part),[13],36%
same,H1L1:H1L2 normalized median ratio (H1L2 part),[14],31%
same,H2L2:H2L1 normalized median ratio (H2L2 part),[15],54%
same,H2L2:H2L1 normalized median scalar value ln(r1/f1),[15],0.15
same,H1L1:H1L2 normalized median ratio (H1L2 part),[16],24%
same,H2L2:H2L1 normalized median ratio (H2L2 part),[17],54%
"Pertuzumab kappa light chain construct (L2) Q38D, HA-tagged (other, not shown: small tags and cut ends) light: DIQMTQSPSSLSASVGDRVTITCKASQDVSIGVAWYQDKPGKAPKLLIYSASYRYTGVPSRFSGSGSGTDFTLTISSLQPEDFATYYCQQYYIYPYTFGQGTKVEIKRTVAAPSVFIFPPSDEQLKSGTASVVCLLNNFYPREAKVQWKVDNALQSGNSQESVTEQDSKDSTYSLSSTLTLSKADYEKHKVYACEVTHQGLSSPVTKSFNRGEC",H1L1:H1L2 normalized median ratio (H1L2 part),[14],31%
same,H2L2:H2L1 normalized median ratio (H2L2 part),[15],56%
same,H2L2:H2L1 normalized median scalar value ln(r1/f1),[15],0.23
"Pertuzumab kappa light chain construct (L2) Q38R, HA-tagged (other, not shown: small tags and cut ends) light: DIQMTQSPSSLSASVGDRVTITCKASQDVSIGVAWYQRKPGKAPKLLIYSASYRYTGVPSRFSGSGSGTDFTLTISSLQPEDFATYYCQQYYIYPYTFGQGTKVEIKRTVAAPSVFIFPPSDEQLKSGTASVVCLLNNFYPREAKVQWKVDNALQSGNSQESVTEQDSKDSTYSLSSTLTLSKADYEKHKVYACEVTHQGLSSPVTKSFNRGEC",H1L1:H1L2 normalized median ratio (H1L2 part),[1],26%
same,H2L2:H2L1 normalized median ratio (H2L2 part),[5],49%
same,H2L2:H2L1 normalized median scalar value ln(r1/f1),[5],-0.03
same,H2L2:H2L1 normalized median ratio (H2L2 part),[6],48%
same,H2L2:H2L1 normalized median scalar value ln(r1/f1),[6],-0.08
same,H1L1:H1L2 normalized median ratio (H1L2 part),[18],23%
same,H2L2:H2L1 normalized median ratio (H2L2 part),[8],77%
same,H2L2:H2L1 normalized median scalar value ln(r1/f1),[8],1.19
same,H2L2:H2L1 normalized median ratio (H2L2 part),[9],73%
same,H2L2:H2L1 normalized median scalar value ln(r1/f1),[9],1.02
same,H1L1:H1L2 normalized median ratio (H1L2 part),[19],28%
same,H2L2:H2L1 normalized median ratio (H2L2 part),[11],92%
same,H2L2:H2L1 normalized median scalar value ln(r1/f1),[11],2.47
same,H2L2:H2L1 normalized median ratio (H2L2 part),[12],77%
same,H2L2:H2L1 normalized median scalar value ln(r1/f1),[12],1.19
"CAT-2200 Fab heterodimer H1L1, no pairing substitutions (wild-type H1 and L1), light chain with FLAG tag (Fab, V domains shown, not shown: small tags and cut ends) VH: not shown VL: NFMLTQPHSVSESPGKTVTISCTRSSGSLANYYVQWYQQRPGSSPTIVIFANNQRPSGVPDRFSGSIDSSSNSASLTISGLKTEDEADYYCQTYDPYSVVFGGGTKLTVLG",Change in KD of H1L1 Fab vs wild type,Recombinant human IL-17A,0
"Design 3890 bispecific antibody, System C (CR8071 H1/L1 & SGN-CD19a H2/L2) (bispecific antibody) chain 1: QVQLVQSGAEVKKPGASVRVSCRASGYIFTESGITWVRQAPGQGLEWMGWISGYSGDTKYAQKLQGRVTMTKDTSTTTAYMELRSLRYDDTAVYYCARDVQYSGSYLGAYYFDYWSPGTLVTVSSASTKGPSVFPLRPSSKSTSGGTAALGCLVKDYFPEPVTVSWNSGALTSGVHTFPAVLKSSGLYSLSSVVTVPSSSLGTQTYICNVNHKPSNTKVDKKVEPKSCDKTHTCPPCPAPELLGGPSVFLFPPKPKDTLMISRTPEVTCVVVDVSHEDPEVKFNWYVDGVEVHNAKTKPREEQYNSTYRVVSVLTVLHQDWLNGKEYKCKVSNKALPAPIEKTISKAKGQPREPQVYVYPPSRDELTKNQVSLTCLVKGFYPSDIAVEWESNGQPENNYKTTPPVLDSDGSFALVSKLTVDKSRWQQGNVFSCSVMHEALHNHYTQKSLSLSPG chain 2: not shown chain 3: not shown chain 4: EIVLTQSPATLSLSPGERATLSCSASSSVSYMHWYQQKPGQAPRLLIYDTSKLASGIPARFSGSGSGTDFTLTISSLEPEDFAVYYCFQGSVYPFTFGQGTKLEIKRTVAAPSVFIFPPKDERLKSGTASVVCLLNNFYPREAKVQWKVDNALQSGNSQESVTEQDSKDSTYSLSSRLTLSKADYEKHKVYACEVTHQGLSSPVTKSFNRGEC",Kd,[20],0.44 nM
same,Kd,[21],40.9 nM
same,Difference in H2L2 log(KD) from wild type,[22],0.22 log(KD)
"Design 2901 bispecific antibody, System C (CR8071 H1/L1 & SGN-CD19a H2/L2) (bispecific antibody) chain 1: QVQLVQSGAEVKKPGASVRVSCRASGYIFTESGITWVRQAPGQGLEWMGWISGYSGDTKYAQKLQGRVTMTKDTSTTTAYMELRSLRYDDTAVYYCARDVQYSGSYLGAYYFDYWSPGTLVTVSSASTKGPSVFPLAPSSKSTSGGTAALGCLVTDYFPEPVTVSWNSGALTSGVHTFPADLQSSGLYSLDSVVTVPSSSLGTQTYICNVNHKPSNTKVDKKVEPKSCDKTHTCPPCPAPELLGGPSVFLFPPKPKDTLMISRTPEVTCVVVDVSHEDPEVKFNWYVDGVEVHNAKTKPREEQYNSTYRVVSVLTVLHQDWLNGKEYKCKVSNKALPAPIEKTISKAKGQPREPQVYVYPPSRDELTKNQVSLTCLVKGFYPSDIAVEWESNGQPENNYKTTPPVLDSDGSFALVSKLTVDKSRWQQGNVFSCSVMHEALHNHYTQKSLSLSPG chain 2: not shown chain 3: not shown chain 4: EIVLTQSPATLSLSPGERATLSCSASSSVSYMHWYQQKPGQAPRLLIYDTSKLASGIPARFSGSGSGTDFTLTISSLEPEDFAVYYCFQGSVYPFTFGQGTKLEIKRTVAAPSVFIFPPSDEQLKSGTASVGCLLNNFYPREAKVQWKVDNALQSGNSQESVTEQDSKDSTYSLDSTLTLSKADYEKHKVYACEVTHQGLSSPVTKSFNRGEC",Kd,[20],0.64 nM
same,Kd,[21],41.9 nM
same,Difference in H2L2 log(KD) from wild type,[22],0.21 log(KD)

# Reference: patent publication US20190338048A1 (published 2019)
